{"source": "paper PMC12698695", "about": "(Nature Communications, 2025)", "biological_target": "the molecule itself", "test": "cryo-EM structure", "data": [{"protein": "human PANX1 W74A mutant (natural protein) MAIAQLATEYVFSDFLLKEPTEPKFKGLRLELAVDKMVTCIAVGLPLLLISLAFAQEISIGTQISCFSPSSFSARQAAFVDSYCWAAVQQKNSLQSESGNLPLWLHKFFPYILLLFAILLYLPPLFWRFAAAPHICSDLKFIMEELDKVYNRAIKAAKSARDLDMRDGACSVPGVTENLGQSLWEVSESHFKYPIVEQYLKTKKNSNNLIIKYISCRLLTLIIILLACIYLGYYFSLSSLSDEFVCSIKSGILRNDSTVPDQFQCKLIAVGIFQLLSVINLVVYVLLAPVVVYTLFVPFRQKTDVLKVYEILPTFDVLHFKSEGYNDLSLYNLFLEENISEVKSYKCLKVLENIKSSGQGIDPMLLLTNLGMIKMDVVDGKTPMSAEMREEQGNQTAELQGMNIDSETKANNGEKNARQRLLDSSC", "values": [{"measurement": "binding result", "result": "binds"}]}]}
